Laboratory results reported in patent US20160137730A1 (Novartis, published 2016).

T1: Rat P-cadherin (CDH3) D1-5 (rat, UniProt P10287 100-647 (mouse entry))
T1 construct: Rat CDH3 residues 100-647 with a C-terminal 6xHis tag (NM_053938.1, NP_446390); it may include leader and vector residues; also called rat pCAD-6xHis
T1 chain: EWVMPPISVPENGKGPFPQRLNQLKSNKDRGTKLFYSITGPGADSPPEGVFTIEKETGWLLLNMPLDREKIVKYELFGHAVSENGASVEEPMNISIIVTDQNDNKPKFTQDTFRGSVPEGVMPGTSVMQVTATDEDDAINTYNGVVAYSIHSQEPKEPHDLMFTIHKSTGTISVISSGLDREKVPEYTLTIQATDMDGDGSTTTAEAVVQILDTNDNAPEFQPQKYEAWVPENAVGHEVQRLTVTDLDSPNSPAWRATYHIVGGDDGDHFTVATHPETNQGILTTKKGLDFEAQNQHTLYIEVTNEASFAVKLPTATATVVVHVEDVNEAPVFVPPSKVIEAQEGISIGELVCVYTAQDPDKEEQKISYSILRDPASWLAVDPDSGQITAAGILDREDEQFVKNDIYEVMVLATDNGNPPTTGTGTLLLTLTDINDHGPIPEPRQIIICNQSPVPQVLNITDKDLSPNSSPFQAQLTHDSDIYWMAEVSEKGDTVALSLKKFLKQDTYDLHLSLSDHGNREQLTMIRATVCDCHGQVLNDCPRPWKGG


Experiments:
[1] = target: T2, Human P-cadherin (CDH3) D1-5 (human, UniProt P22223 108-652); assay: SPR Biacore, ADC captured via Protein A, ECD-6xHis analyte, 25C, 1:1 fit
T2 construct: Human CDH3 residues 108-652 with a C-terminal 6xHis tag, made in Tn5 insect cells with baculovirus (NM_001793.4, NP_001784); It may include a secretion signal and vector residues, as the printed cyno constructs do; no cleavage site is stated; also called human pCAD-6xHis; human P-cadherin ECD
T2 sequence (P22223 108-652 limits assumed): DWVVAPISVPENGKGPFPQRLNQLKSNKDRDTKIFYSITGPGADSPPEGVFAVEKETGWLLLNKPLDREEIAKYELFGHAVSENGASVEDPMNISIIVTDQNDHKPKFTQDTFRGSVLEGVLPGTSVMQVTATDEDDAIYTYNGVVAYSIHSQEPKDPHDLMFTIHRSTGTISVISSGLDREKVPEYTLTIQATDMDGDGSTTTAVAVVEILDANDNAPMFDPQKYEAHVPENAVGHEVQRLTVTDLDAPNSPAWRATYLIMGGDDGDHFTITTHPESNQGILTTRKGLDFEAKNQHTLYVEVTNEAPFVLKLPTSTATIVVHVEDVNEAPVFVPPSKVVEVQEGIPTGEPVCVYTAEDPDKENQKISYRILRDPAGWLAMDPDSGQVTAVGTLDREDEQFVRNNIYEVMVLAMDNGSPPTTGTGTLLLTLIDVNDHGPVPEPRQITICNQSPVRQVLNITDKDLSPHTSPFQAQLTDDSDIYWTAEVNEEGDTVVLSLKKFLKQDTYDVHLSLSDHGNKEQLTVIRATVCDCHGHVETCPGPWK
Source text: (§1) Briefly, HBS-P⁺ (0.01 M HEPES, pH 7.4, 0.15 M NaCl, 0.05% Surfactant P20) supplemented with 2% Odyssey® blocking buffer (Li-Cor Biosciences, Lincoln, Nebr.) was used as the running buffer for all the experiments on the Biacore® T100 instrument. HBS-P (0.01 M HEPES, pH 7.4, 0.15 M NaCl, 0.005% Surfactant P20) supplemented with 2% Odyssey® blocking buffer was used as the running buffer for all the experiments on the Biacore® 2000 instrument. The immobilization level and analyte interactions were measured by response unit (RU).
(§2) For kinetic measurements, experiments were performed in which the antibodies were captured to the sensor chip surface via the immobilized Protein A and the ability of the P-cadherin proteins to bind in free solution was determined. Briefly, 28 μg/ml of Protein A at pH 4.5 was immobilized on a CM5 sensor chip through amine coupling at flow rate of 10 μl/minute on two flow cells to reach 2300-3300 RUs. 0.01-0.25 μg/ml of test antibodies was then injected at 5 μl/min for 3 minute. […] Subsequently, 6.25-100 nM of P-cadherin ECD was diluted in a 2-fold series and injected at a flow rate of 40 μl/min for 2-4 min over both reference and test flow cells. Table 11 of tested ECDs is listed below. Dissociation of the binding was followed for 5 min. After each injection cycle, the chip surface was regenerated with PBS/6 M Guanidine HCl, pH 7.4 at 100 μl/min for 45 seconds.

[2] = target: T2, Human P-cadherin (CDH3) D1-5; assay: SPR Biacore, Ab captured via Protein A, ECD-6xHis analyte, 25C, 1:1 fit
Source text: as §1, §2

[3] = target: T1, Rat P-cadherin (CDH3) D1-5; assay: as above
Source text: as §1, §2

[4] = target: T3, Cynomolgus Monkey P-cadherin var. 1 (CDH3) D1-5 (cynomolgus monkey); assay: SPR Biacore, ADC captured via Protein A, ECD-6xHis analyte, 25C, 1:1 fit
T3 construct: Cynomolgus CDH3 variant 1 residues 108-654 with a C-terminal 6xHis tag; The printed entry starts with a leader and vector residues; also called Cyno_1 P-cad; cyno1 pCAD-6xHis
T3 sequence (chain, as listed by the source limits assumed): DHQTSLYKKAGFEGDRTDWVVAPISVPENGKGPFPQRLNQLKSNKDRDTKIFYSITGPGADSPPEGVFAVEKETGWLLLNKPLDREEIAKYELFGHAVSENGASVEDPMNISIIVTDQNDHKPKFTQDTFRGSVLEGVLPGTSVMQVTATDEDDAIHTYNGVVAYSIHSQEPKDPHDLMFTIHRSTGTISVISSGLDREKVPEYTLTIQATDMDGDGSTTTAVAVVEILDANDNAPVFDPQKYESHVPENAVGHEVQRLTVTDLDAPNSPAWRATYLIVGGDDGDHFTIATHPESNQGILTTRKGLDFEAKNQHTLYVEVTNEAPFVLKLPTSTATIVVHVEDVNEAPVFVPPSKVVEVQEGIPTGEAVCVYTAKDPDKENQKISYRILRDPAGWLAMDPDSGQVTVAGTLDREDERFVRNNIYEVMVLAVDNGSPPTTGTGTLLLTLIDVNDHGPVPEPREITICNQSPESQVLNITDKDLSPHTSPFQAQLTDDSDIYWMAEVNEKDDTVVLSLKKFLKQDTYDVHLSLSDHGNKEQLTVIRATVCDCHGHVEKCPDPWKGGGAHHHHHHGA
Source text: as §1, §2

[5] = target: T4, Cynomolgus Monkey P-cadherin var. 2 (CDH3) D1-5 (cynomolgus monkey); assay: as above
T4 construct: Cynomolgus CDH3 variant 2 residues 108-654 with a C-terminal 6xHis tag; The printed entry starts with a leader and vector residues; also called Cyno_2 P-cad; cyno2 pCAD-6xHis
T4 sequence (chain, as listed by the source limits assumed): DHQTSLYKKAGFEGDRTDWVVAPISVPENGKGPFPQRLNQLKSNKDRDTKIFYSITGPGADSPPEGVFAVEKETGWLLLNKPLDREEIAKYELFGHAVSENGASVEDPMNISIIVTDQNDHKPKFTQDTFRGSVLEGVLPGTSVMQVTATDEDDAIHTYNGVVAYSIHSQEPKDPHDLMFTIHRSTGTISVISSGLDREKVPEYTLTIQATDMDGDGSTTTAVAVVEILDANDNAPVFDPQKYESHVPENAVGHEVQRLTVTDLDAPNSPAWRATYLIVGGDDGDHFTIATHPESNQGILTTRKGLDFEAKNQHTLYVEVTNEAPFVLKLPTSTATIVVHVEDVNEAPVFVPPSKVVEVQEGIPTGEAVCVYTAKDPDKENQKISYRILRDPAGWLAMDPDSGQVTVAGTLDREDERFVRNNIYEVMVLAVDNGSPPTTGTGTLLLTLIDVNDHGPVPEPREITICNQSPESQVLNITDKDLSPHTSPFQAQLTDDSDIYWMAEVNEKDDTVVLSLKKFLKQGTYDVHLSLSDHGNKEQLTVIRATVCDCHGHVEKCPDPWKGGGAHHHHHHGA
Source text: as §1, §2

Human P-cadherin = Human P-cadherin (human, UniProt P22223 108-829); assay: cell-based or functional assay
Chain of Human P-cadherin (P22223 108-829 limits assumed): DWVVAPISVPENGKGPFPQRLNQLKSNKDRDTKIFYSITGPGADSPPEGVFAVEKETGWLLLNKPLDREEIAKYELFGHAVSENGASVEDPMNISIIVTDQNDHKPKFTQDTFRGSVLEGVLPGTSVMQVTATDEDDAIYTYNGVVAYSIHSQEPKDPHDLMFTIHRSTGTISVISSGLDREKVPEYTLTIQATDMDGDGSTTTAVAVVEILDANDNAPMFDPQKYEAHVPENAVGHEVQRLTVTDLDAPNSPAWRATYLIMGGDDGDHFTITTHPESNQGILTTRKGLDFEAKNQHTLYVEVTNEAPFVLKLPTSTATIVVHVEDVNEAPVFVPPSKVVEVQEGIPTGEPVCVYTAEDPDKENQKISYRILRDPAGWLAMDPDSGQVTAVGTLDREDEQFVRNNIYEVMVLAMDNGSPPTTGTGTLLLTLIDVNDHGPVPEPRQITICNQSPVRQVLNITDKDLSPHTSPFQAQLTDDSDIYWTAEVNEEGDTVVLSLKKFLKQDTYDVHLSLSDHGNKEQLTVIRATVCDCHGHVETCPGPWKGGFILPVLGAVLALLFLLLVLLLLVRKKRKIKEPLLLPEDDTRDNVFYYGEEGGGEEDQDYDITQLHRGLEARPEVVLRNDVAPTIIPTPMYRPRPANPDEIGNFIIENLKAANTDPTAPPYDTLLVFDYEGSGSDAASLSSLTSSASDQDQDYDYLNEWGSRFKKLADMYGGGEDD

[6] = target: T1, Rat P-cadherin (CDH3) D1-5; assay: SPR Biacore, Ab captured via Protein A, ECD-6xHis analyte
[7] = target: T1, Rat P-cadherin (CDH3) D1-5; assay: SPR Biacore, ADC captured via Protein A, ECD-6xHis analyte, 25C, 1:1 fit
Source text: as §1, §2

Binder	Kd [1]	Kd [2]	Kd [3]	also measured
NEG0012-MCC-DM1 (antibody, human IgG1, kappa, V domains shown, DM1 (maytansinoid) attached through the MCC linker to primary amines of the antibody; sites not given, Antibody drug conjugate in Ab-MCC-DM1 format; also called NEG0012 ADC) VH: EVQLVQSGAEVKKPGESLKISCKVSGYTFTDHTIHWMRQMPGKGLEWMGYIYPRSGSINYNEKFKGQVTISADKSSSTAYLQWSSLKASDTAMYYCARRNLFLPMEYWGQGTLVTVSS VL: DIVMTQTPLSLPVTPGEPASISCRSSQSLLSSGDQKNYLTWYLQKPGQSPQLLIYWASTRESGVPDRFSGSGSGTDFTLKISRVEAEDVGVYYCQNDYRYPLTFGQGTKLEIKR	31.3 nM	–	–	–
NEG0012 (antibody, human IgG1, kappa, V domains shown, Humanized anti-P-cadherin antibody derived from a murine hybridoma; also called NEG0012 Naked) VH: EVQLVQSGAEVKKPGESLKISCKVSGYTFTDHTIHWMRQMPGKGLEWMGYIYPRSGSINYNEKFKGQVTISADKSSSTAYLQWSSLKASDTAMYYCARRNLFLPMEYWGQGTLVTVSS VL: DIVMTQTPLSLPVTPGEPASISCRSSQSLLSSGDQKNYLTWYLQKPGQSPQLLIYWASTRESGVPDRFSGSGSGTDFTLKISRVEAEDVGVYYCQNDYRYPLTFGQGTKLEIKR	–	44.8 nM	–	–
NEG0013-MCC-DM1 (antibody, human IgG1, kappa, V domains shown, DM1 (maytansinoid) attached through the MCC linker to primary amines of the antibody; sites not given, Antibody drug conjugate in Ab-MCC-DM1 format; also called NEG0013 ADC) VH: EVQLVQSGAEVKKPGESLKISCKVSGYTFTDHTIHWMRQMPGKGLEWMGYIYPRSGSINYNEKFKGQVTISADKSSSTAYLQWSSLKASDTAMYYCARRNLFLPMEYWGQGTLVTVSS VL: DIVMTQTPLSLPVTPGEPASISCRSSQSLLSSGNQKNYLTWYLQKPGQSPQLLIYWASTRESGVPDRFSGSGSGTDFTLKISRVEAEDVGVYYCQNDYSYPLTFGQGTKLEIKR	36 nM	–	–	–
NEG0013 (antibody, human IgG1, kappa, V domains shown, Humanized anti-P-cadherin antibody derived from a murine hybridoma; also called NEG0013 Naked) VH: EVQLVQSGAEVKKPGESLKISCKVSGYTFTDHTIHWMRQMPGKGLEWMGYIYPRSGSINYNEKFKGQVTISADKSSSTAYLQWSSLKASDTAMYYCARRNLFLPMEYWGQGTLVTVSS VL: DIVMTQTPLSLPVTPGEPASISCRSSQSLLSSGNQKNYLTWYLQKPGQSPQLLIYWASTRESGVPDRFSGSGSGTDFTLKISRVEAEDVGVYYCQNDYSYPLTFGQGTKLEIKR	–	37.3 nM	37 nM	–
NOV169N31Q-MCC-DM1 (antibody, human IgG1, kappa, V domains shown, DM1 (maytansinoid) attached through the MCC linker to primary amines of the antibody; sites not given, MAR 3.7 (one-step process), 3.15 (in situ process), target DAR 3.8; also called NOV169N31Q ADC) VH: QVQLQQSGPGLVKPSQTLSLTCAISGDSVSSQSAAWNWIRQSPSRGLEWLGRIYYRSKWYNDYALSVKSRITINPDTSKNQFSLQLNSVTPEDTAVYYCARGEGYGREGFAIWGQGTLVTVSS VL: DIQMTQSPSSLSASVGDRVTITCRASQTISNTLAWYQQKPGKAPKLLIYAASNLQSGVPSRFSGSGSGTDFTLTISSLQPEDFATYYCQQYLSWFTFGQGTKVEIKR	27 nM	–	–	Kd [4]: 27.5 nM; Kd [5]: 47.1 nM; IC50 (nM), CellTiter-Glo proliferation/survival, 5 days, A431 cells (Human P-cadherin): 21.8 nM; IC50 (nM), CellTiter-Glo proliferation/survival, 5 days, BICR6 cells (Human P-cadherin): 9.62 nM; IC50 (nM), CellTiter-Glo proliferation/survival, 5 days, HCC38 cells (Human P-cadherin): 5.29 nM; IC50 (nM), CellTiter-Glo proliferation/survival, 5 days, HCC70 cells (Human P-cadherin): 3.23 nM; IC50 (nM), CellTiter-Glo proliferation/survival, 5 days, HCC1806 cells (Human P-cadherin): 11.4 nM; IC50 (nM), CellTiter-Glo proliferation/survival, 5 days, HCC1954 cells (Human P-cadherin): 2.28 nM; IC50 (nM), CellTiter-Glo proliferation/survival, 5 days, scaBER cells (Human P-cadherin): 4.06 nM
NOV169N31Q (antibody, human IgG1, kappa, V domains shown, N31Q in HCDR1 removes a deamidation site of parental NOV169; also called anti-P-cadherin antibody NOV169N31Q; NOV169N31Q Naked) VH: QVQLQQSGPGLVKPSQTLSLTCAISGDSVSSQSAAWNWIRQSPSRGLEWLGRIYYRSKWYNDYALSVKSRITINPDTSKNQFSLQLNSVTPEDTAVYYCARGEGYGREGFAIWGQGTLVTVSS VL: DIQMTQSPSSLSASVGDRVTITCRASQTISNTLAWYQQKPGKAPKLLIYAASNLQSGVPSRFSGSGSGTDFTLTISSLQPEDFATYYCQQYLSWFTFGQGTKVEIKR	–	33.3 nM	–	binding result [6]: no binding (tested: 6.25-100 nM P-cadherin ECD injected)
NEG0064 (antibody, human IgG1, kappa, V domains shown, Humanized anti-P-cadherin antibody derived from a murine hybridoma; also called NEG0064 Naked) VH: QIQLVQSGAEVKKPGSSVKVSCKVSGYTFTDHTLHWMRQAPGQGLEWMGYIYPRSGSTKYNENFRGRVTITADTSSSTAYMELSSLRSEDTAVYYCVRRLLFLPLDYWGQGTLVTVSS VL: EIVMTQSPATLSLSPGERATLSCRSSQSLLSSGNQKSYLTWYQQKPGQAPRLLIYWASTRESGIPARFSGSGSGTDFTLTISSLQPEDFAVYYCQNDYSYPFTFGQGTKLEIKR	–	3.66 nM	8.99 nM	–
NEG0064-MCC-DM1 (antibody, human IgG1, kappa, V domains shown, DM1 (maytansinoid) attached through the MCC linker to primary amines of the antibody; sites not given, Antibody drug conjugate in Ab-MCC-DM1 format; also called NEG0064 ADC) VH: QIQLVQSGAEVKKPGSSVKVSCKVSGYTFTDHTLHWMRQAPGQGLEWMGYIYPRSGSTKYNENFRGRVTITADTSSSTAYMELSSLRSEDTAVYYCVRRLLFLPLDYWGQGTLVTVSS VL: EIVMTQSPATLSLSPGERATLSCRSSQSLLSSGNQKSYLTWYQQKPGQAPRLLIYWASTRESGIPARFSGSGSGTDFTLTISSLQPEDFAVYYCQNDYSYPFTFGQGTKLEIKR	4.4 nM	–	–	Kd [7]: 13.3 nM
NEG0067-MCC-DM1 (antibody, human IgG1, kappa, V domains shown, DM1 (maytansinoid) attached through the MCC linker to primary amines of the antibody; sites not given, Antibody drug conjugate in Ab-MCC-DM1 format; also called NEG0067 ADC) VH: QIQLVQSGAEVKKPGSSVKVSCKVSGYTFTDHTLHWMRQAPGQGLEWMGYIYPRSGSTKYNENFKGRVTITADTSSSTAYMELSSLRSEDTAVYYCVRRLLFLPLDYWGQGTLVTVSS VL: EIVMTQSPATLSLSPGERATLSCRSSQSLLSSGNQKSYLTWYQQKPGQAPRLLIYWASTRESGIPARFSGSGSGTDFTLTISSLQPEDFAVYYCQNDYSYPFTFGQGTKLEIKR	6 nM	–	–	–
NEG0016 (antibody, human IgG1, kappa, V domains shown, Humanized anti-P-cadherin antibody derived from a murine hybridoma; also called NEG0016 Naked) VH: QIQLVQSGAEVKKPGSSVKVSCKVSGYTFTDHTLHWMRQAPGQGLEWMGYIYPRSGSTKYNENFRGRVTITADTSSSTAYMELSSLRSEDTAVYYCARRLLFLPLDYWGQGTLVTVSS VL: EIVMTQSPATLSLSPGERATLSCRSSQSLLSSGNQKSYLTWYQQKPGQAPRLLIYWASTRESGIPARFSGSGSGTDFTLTISSLQPEDFAVYYCQNDYSYPFTFGQGTKLEIKR	–	60 nM	60.1 nM	–
NEG0016-MCC-DM1 (antibody, human IgG1, kappa, V domains shown, DM1 (maytansinoid) attached through the MCC linker to primary amines of the antibody; sites not given, Antibody drug conjugate in Ab-MCC-DM1 format; also called NEG0016 ADC) VH: QIQLVQSGAEVKKPGSSVKVSCKVSGYTFTDHTLHWMRQAPGQGLEWMGYIYPRSGSTKYNENFRGRVTITADTSSSTAYMELSSLRSEDTAVYYCARRLLFLPLDYWGQGTLVTVSS VL: EIVMTQSPATLSLSPGERATLSCRSSQSLLSSGNQKSYLTWYQQKPGQAPRLLIYWASTRESGIPARFSGSGSGTDFTLTISSLQPEDFAVYYCQNDYSYPFTFGQGTKLEIKR	54 nM	–	–	–
NEG0067 (antibody, human IgG1, kappa, V domains shown, Humanized anti-P-cadherin antibody derived from a murine hybridoma; also called NEG0067 Naked) VH: QIQLVQSGAEVKKPGSSVKVSCKVSGYTFTDHTLHWMRQAPGQGLEWMGYIYPRSGSTKYNENFKGRVTITADTSSSTAYMELSSLRSEDTAVYYCVRRLLFLPLDYWGQGTLVTVSS VL: EIVMTQSPATLSLSPGERATLSCRSSQSLLSSGNQKSYLTWYQQKPGQAPRLLIYWASTRESGIPARFSGSGSGTDFTLTISSLQPEDFAVYYCQNDYSYPFTFGQGTKLEIKR	–	3.21 nM	10.3 nM	–
